This is an account of results in patent US20230321260A1.

The target of this assay is MBP-RumTrunkD9NTag. As to the kind of experiment: isopeptide coupling to RumTrunkD9NTag-MBP, 5 uM each, 37 C, SDS gel (time given as 50 minutes and as 3 h).

SpyCatcher-VLP gave a Percentage reconstitution of 11.9%.
